Data as given in the supplement of paper PMC10065799, “High-throughput profiling of sequence recognition by tyrosine kinases and SH2 domains using bacterial peptide display” (eLife, 2023).

Tests used:
FGFR3 = FGFR3 (UniProt P22607); assay: phosphorylation enrichment, bacterial display (enrichment ratio); higher = better substrate or ligand; peptides without Tyr show the background
EPHB2 = EPHB2 (UniProt P29323); assay: as above
c-Abl (mouse) = assay: as above
Fyn = Fyn (UniProt P06241); assay: as above
AncSZ = assay: as above
EPHB1 = EPHB1 (UniProt P54762); assay: as above
FGFR1 = FGFR1 (UniProt P11362); assay: as above
Fer (mouse) = assay: as above
Fes = Fes (UniProt P07332); assay: as above
Hck = Hck (UniProt P08631); assay: as above
Jak2 = Jak2 (UniProt O60674); assay: as above
MERTK = MERTK (UniProt Q12866); assay: as above
c-Src = assay: as above
SHP2-C SH2 = assay: SH2 binding enrichment of the phosphorylated peptide, bacterial display (enrichment ratio); higher = better substrate or ligand; peptides without Tyr show the background
c-Src SH2 = assay: as above
Grb2 SH2 = Grb2 SH2 (UniProt P62993); assay: as above
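Wherever SH2 binding enrichment of the phosphorylated peptide, bacterial display is given: peptide library displayed on the E. coli surface as eCPX fusions, selected cells deep-sequenced, score is each peptide's frequency after selection divided by its frequency in the input.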
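Wherever phosphorylation enrichment, bacterial display is given: 11-residue human phosphosite peptides and single-mutation variants displayed on the E. coli surface, counted by deep sequencing, each peptide's frequency after selection divided by its frequency in the unselected input library; frequency after pTyr selection over input frequency; kinase dosed for 20-30% of maximal phosphorylation in three min.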

FGFR3, sequence (P22607 whole entry, looked up): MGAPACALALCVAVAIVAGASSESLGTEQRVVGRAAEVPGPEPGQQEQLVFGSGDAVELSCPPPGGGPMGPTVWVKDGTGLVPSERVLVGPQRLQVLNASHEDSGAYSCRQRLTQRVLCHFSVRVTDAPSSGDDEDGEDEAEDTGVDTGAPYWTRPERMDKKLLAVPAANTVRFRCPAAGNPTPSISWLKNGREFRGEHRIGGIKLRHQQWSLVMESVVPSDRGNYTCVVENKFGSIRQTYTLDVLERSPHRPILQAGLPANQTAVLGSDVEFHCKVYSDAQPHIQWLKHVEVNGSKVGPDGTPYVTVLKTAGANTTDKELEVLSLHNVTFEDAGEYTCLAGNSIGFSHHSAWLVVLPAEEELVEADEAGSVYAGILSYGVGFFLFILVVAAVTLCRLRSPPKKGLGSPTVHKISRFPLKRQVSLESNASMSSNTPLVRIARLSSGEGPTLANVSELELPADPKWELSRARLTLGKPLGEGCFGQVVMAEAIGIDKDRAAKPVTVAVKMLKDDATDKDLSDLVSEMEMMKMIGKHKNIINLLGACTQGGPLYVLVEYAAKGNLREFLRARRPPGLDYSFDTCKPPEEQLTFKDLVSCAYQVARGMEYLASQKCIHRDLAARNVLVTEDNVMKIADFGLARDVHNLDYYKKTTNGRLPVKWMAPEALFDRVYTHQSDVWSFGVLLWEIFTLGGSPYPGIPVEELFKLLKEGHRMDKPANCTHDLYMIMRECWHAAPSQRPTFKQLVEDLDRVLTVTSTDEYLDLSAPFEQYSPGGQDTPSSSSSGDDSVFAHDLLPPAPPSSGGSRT
EPHB2, sequence (P29323 whole entry, looked up): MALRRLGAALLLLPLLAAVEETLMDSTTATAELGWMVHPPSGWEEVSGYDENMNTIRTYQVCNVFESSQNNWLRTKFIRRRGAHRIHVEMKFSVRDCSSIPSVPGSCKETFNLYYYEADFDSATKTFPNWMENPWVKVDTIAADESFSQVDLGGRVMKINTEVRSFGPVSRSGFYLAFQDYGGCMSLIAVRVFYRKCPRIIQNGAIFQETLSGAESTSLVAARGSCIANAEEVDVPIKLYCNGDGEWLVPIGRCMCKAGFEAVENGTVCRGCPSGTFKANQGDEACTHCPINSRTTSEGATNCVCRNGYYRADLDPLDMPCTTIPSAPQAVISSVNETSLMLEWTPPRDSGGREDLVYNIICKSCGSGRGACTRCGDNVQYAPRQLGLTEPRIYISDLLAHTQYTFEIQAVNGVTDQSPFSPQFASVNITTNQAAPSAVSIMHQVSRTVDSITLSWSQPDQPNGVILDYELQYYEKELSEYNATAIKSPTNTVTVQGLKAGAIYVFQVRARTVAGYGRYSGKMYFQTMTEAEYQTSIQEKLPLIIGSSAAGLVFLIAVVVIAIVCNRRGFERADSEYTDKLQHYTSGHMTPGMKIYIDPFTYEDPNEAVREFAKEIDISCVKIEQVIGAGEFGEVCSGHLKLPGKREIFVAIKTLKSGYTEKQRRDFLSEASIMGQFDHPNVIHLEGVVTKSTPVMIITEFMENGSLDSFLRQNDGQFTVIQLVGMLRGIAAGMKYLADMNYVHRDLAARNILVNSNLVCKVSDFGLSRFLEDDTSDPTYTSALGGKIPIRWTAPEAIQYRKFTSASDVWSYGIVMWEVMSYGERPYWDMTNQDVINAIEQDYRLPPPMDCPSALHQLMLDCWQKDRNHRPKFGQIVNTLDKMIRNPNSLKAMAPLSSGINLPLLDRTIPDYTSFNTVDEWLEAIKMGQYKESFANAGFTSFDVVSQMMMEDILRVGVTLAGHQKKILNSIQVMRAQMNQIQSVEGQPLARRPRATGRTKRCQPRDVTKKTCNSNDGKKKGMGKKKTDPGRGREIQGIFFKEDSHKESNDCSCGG
MERTK, sequence (Q12866 whole entry, looked up): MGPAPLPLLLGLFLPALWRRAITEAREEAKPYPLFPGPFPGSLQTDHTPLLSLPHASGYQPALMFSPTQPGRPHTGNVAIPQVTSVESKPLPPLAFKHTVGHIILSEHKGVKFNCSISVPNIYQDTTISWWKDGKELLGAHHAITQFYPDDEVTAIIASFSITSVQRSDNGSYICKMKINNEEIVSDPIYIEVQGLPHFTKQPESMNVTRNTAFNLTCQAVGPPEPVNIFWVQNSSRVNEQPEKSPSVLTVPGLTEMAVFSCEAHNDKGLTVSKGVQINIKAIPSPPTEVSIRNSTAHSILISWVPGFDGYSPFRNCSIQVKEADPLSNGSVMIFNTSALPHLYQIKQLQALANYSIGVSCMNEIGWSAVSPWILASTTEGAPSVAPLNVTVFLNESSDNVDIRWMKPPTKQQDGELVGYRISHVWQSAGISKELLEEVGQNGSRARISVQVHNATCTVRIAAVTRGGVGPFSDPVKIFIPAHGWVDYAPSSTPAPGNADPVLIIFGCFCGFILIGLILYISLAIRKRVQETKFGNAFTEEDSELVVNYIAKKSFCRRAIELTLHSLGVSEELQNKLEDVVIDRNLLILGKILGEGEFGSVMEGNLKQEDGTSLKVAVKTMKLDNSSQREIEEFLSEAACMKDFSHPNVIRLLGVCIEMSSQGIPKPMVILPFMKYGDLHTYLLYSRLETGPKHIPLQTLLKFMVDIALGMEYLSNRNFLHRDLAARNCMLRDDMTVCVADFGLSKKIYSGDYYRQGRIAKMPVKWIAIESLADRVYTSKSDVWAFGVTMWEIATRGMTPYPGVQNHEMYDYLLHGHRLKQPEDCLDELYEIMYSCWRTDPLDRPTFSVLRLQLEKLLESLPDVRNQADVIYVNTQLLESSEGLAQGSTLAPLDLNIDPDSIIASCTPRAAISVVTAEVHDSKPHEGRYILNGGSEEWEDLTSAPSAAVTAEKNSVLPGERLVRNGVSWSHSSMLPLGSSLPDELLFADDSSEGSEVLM
Jak2, sequence (O60674 whole entry, looked up): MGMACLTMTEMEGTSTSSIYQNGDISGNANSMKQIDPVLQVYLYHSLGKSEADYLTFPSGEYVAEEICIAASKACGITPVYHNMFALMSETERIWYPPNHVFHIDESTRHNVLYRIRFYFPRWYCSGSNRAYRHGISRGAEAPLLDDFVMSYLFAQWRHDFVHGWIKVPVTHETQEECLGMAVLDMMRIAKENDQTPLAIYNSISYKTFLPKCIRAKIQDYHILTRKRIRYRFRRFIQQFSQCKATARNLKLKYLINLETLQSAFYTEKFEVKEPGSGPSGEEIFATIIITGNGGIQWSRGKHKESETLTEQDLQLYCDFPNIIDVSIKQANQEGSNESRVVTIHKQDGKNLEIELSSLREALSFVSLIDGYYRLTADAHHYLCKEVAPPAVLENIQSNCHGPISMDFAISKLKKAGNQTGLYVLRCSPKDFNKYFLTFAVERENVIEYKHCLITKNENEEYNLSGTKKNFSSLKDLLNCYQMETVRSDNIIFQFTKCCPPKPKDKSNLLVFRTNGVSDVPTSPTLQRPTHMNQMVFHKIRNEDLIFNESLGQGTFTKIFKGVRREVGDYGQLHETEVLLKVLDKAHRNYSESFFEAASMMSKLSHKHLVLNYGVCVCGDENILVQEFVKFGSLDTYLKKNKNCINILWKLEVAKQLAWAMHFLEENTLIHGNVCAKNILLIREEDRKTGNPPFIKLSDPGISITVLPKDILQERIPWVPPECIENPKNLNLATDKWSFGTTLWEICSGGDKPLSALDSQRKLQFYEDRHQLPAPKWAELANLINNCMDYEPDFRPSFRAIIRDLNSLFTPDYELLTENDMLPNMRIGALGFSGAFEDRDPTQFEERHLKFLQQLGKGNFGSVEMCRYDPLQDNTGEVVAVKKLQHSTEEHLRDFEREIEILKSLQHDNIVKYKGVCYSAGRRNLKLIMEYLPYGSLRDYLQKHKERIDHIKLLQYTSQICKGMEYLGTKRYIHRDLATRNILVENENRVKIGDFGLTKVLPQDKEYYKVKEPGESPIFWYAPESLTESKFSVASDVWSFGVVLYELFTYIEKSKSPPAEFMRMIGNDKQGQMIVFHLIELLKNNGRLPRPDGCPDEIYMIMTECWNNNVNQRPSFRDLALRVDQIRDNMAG
Fyn, sequence (P06241 whole entry, looked up): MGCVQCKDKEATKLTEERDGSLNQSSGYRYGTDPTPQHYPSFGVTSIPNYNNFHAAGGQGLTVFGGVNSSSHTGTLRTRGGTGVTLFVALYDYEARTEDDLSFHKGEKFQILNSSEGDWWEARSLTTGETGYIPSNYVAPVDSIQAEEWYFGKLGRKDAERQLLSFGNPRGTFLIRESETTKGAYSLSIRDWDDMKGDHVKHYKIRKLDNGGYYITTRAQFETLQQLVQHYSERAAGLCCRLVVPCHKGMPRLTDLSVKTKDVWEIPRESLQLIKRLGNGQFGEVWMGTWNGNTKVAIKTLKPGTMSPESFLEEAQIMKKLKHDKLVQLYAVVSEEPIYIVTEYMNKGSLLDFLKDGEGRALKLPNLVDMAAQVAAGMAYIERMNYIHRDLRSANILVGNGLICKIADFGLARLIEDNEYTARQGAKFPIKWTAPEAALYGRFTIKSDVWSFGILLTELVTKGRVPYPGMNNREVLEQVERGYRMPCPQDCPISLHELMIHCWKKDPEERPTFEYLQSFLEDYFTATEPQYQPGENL
Hck, sequence (P08631 whole entry, looked up): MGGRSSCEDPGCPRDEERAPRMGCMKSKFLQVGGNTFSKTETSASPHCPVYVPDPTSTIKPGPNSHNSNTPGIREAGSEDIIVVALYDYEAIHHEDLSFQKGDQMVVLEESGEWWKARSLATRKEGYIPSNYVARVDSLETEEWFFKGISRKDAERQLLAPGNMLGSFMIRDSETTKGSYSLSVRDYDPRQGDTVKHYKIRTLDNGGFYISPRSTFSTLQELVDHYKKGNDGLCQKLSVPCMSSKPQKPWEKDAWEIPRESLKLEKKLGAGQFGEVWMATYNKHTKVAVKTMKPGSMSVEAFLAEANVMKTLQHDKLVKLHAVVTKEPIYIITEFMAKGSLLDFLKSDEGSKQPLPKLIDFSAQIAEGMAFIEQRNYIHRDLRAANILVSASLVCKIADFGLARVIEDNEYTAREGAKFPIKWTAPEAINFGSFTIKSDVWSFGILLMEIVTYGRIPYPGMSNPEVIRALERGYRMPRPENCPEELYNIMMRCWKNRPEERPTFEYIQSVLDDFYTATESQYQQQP

SH2 binding enrichment (SHP2-C SH2)	SH2 binding enrichment (c-Src SH2)	SH2 binding enrichment (Grb2 SH2)	Sequence	phosphorylation enrichment (FGFR3)	phosphorylation enrichment (EPHB2)	phosphorylation enrichment (c-Abl (mouse))	phosphorylation enrichment (Fyn)	phosphorylation enrichment (AncSZ)	phosphorylation enrichment (EPHB1)	phosphorylation enrichment (FGFR1)	phosphorylation enrichment (Fer (mouse))	phosphorylation enrichment (Fes)	phosphorylation enrichment (Hck)	phosphorylation enrichment (Jak2)	phosphorylation enrichment (MERTK)	phosphorylation enrichment (c-Src)
0.742	0.412	0.628	IYQASYYRRGD [LTK_Y676_R673Q]	0.473	0.66	11.5	7.6	0.822	0.659	0.479	1.43	0.695	10.6	0.528	6.37	6.2
0.756	0.411	0.648	KAEELYIGVTV [EFHC2_Y509]	2.33	0.772	0.988	2.06	2.15	0.921	2.35	5.31	1.35	2.75	0.966	1.42	2.2
0.691	0.537	0.801	KALKQYRASPS [DDX27_Y763_G766S]	0.309	0.344	0.552	0.373	0.411	0.312	0.328	0.368	0.423	0.318	0.439	0.401	0.43
0.597	0.349	0.626	KANEFYPVVII [ADAMTS18_Y765_L769I_YF]	1.26	0.695	0.663	0.458	1.03	0.411	1.9	0.456	1.16	0.458	1.06	0.386	0.478
0.556	2.28	0.887	KAPPTYDTVLQ [CYP3A4_Y347]	0.483	7.86	0.663	2.46	0.686	6.72	0.36	2.09	0.735	2.98	0.576	1.89	1.44
0.685	0.602	0.708	KCCCIYEKPRS [PPP1R11_Y64_A69S]	0.667	0.892	3.97	2.07	1.86	1.03	0.456	7.18	1.01	2.45	0.642	1.17	3.04
0.515	0.415	0.68	KDAGDYKYKAK [LRIT3_Y326_C328Y]	0.387	0.366	0.571	0.308	0.398	0.353	0.337	0.256	0.604	0.346	0.519	0.32	0.319
0.64	0.515	0.874	KDDEKYLDVIR [MTM1_Y260]	0.663	0.49	0.689	0.433	0.961	0.461	0.453	0.405	0.971	0.501	0.987	0.434	0.409
0.905	0.535	0.899	KDQGIYEDYVE [MYL6_Y86_T85I]	0.672	0.853	0.851	2.05	1.2	0.74	0.58	1.03	1.08	1.06	0.936	0.489	2.02
0.873	0.513	0.921	KEDPEYKKKFR [FAM161A_Y278_E273K]	0.6	0.589	0.824	0.34	0.749	0.499	0.534	0.455	1.07	0.477	1.02	0.433	0.502
0.622	0.782	1.01	KELAKYYKLHH [AK7_Y390_N389K]	0.418	0.363	0.46	0.35	0.472	0.366	0.377	0.383	0.472	0.39	0.379	0.422	0.439
0.497	0.481	0.757	KELSSYKHLTL [SLIT2_Y776_N775S]	0.406	0.38	0.511	0.427	0.556	0.315	0.393	0.497	0.53	0.445	0.491	0.404	0.451
0.825	0.391	0.93	KERNQYGEVMV [MMP21_Y347]	0.463	0.436	0.683	1.39	0.587	0.455	0.502	0.653	0.734	0.507	0.547	0.404	0.744
0.758	0.472	0.816	KFEDVYVRICL [B3GALNT1_Y269_G271R]	0.926	0.582	1.03	0.452	1.64	0.655	0.512	0.593	1.38	0.479	1.28	0.436	0.545

Sequence	SH2 binding enrichment (SHP2-C SH2)	SH2 binding enrichment (c-Src SH2)	SH2 binding enrichment (Grb2 SH2)	phosphorylation enrichment (FGFR3)	phosphorylation enrichment (EPHB2)	phosphorylation enrichment (c-Abl (mouse))	phosphorylation enrichment (Fyn)	phosphorylation enrichment (AncSZ)	phosphorylation enrichment (EPHB1)	phosphorylation enrichment (FGFR1)	phosphorylation enrichment (Fer (mouse))	phosphorylation enrichment (Fes)	phosphorylation enrichment (Hck)	phosphorylation enrichment (Jak2)	phosphorylation enrichment (MERTK)	phosphorylation enrichment (c-Src)
KDGNGYISAAE [CALM1_Y100]	0.746	0.571	0.742	0.594	0.491	0.546	0.463	0.646	0.394	0.477	0.389	0.76	0.542	0.685	0.47	0.416
KFLENYLNRLL [PLD2_Y169_YF]	1.79	1.51	1.67	0.562	0.642	0.471	0.37	0.694	0.464	0.499	0.462	0.768	0.415	0.762	0.37	0.481
